Experimental data published in paper PMC7560827, “Immunodominant proteins P1 and P40/P90 from human pathogen Mycoplasma pneumoniae” (Nature Communications, 2020).

T1: P90N polypeptide (Ala446 to the C-end of P40/P90N) (Mycoplasma pneumoniae, UniProt Q50341 446-1003)
T1 construct: source: E. coli B834 (DE3), cleavage product in purified P40/P90N samples
T1 sequence: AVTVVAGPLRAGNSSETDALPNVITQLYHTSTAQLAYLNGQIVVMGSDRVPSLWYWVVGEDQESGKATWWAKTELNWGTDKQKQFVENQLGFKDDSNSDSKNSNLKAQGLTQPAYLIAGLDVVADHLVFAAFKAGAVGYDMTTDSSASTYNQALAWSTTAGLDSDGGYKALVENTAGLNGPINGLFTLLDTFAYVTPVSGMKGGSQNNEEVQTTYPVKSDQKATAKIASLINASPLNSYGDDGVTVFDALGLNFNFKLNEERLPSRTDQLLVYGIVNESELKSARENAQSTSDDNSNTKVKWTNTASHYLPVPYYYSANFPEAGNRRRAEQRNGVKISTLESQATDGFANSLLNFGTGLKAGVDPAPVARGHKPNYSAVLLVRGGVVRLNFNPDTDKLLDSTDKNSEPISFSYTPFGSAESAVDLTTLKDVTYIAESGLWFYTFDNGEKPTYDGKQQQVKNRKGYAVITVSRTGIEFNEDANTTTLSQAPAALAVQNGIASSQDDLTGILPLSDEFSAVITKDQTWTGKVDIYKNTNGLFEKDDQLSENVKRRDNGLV

B1: P1 extracellular region (residues Thr29-Asp1521) (domain or fragment)
chain: TVVGHFTSTTTTLKRQQFSYTRPDEVALRHTNAINPRLTPWTYRNTSFSSLPLTGENPGAWALVRDNSAKGITAGSGSQQTTYDPTRTEAALTASTTFALRRYDLAGRALYDLDFSKLNPQTPTRDQTGQITFNPFGGFGLSGAAPQQWNEVKNKVPVEVAQDPSNPYRFAVLLVPRSVVYYEQLQRGLGLPQQRTESGQNTSTTGAMFGLKVKNAEADTAKSNEKLQGAEATGSSTTSGSGQSTQRGGSSGDTKVKALKIEVKKKSDSEDNGQLQLEKNDLANAPIKRSEESGQSVQLKADDFGTALSSSGSGGNSNPGSPTPWRPWLATEQIHKDLPKWSASILILYDAPYARNRTAIDRVDHLDPKAMTANYPPSWRTPKWNHHGLWDWKARDVLLQTTGFFNPRRHPEWFDGGQTVADNEKTGFDVDNSENTKQGFQKEADSDKSAPIALPFEAYFANIGNLTWFGQALLVFGGNGHVTKSAHTAPLSIGVFRVRYNATGTSATVTGWPYALLFSGMVNKQTDGLKDLPFNNNRWFEYVPRMAVAGAKFVGRELVLAGTITMGDTATVPRLLYDELESNLNLVAQGQGLLREDLQLFTPYGWANRPDLPIGAWSSSSSSSHNAPYYFHNNPDWQDRPIQNVVDAFIKPWEDKNGKDDAKYIYPYRYSGMWAWQVYNWSNKLTDQPLSADFVNENAYQPNSLFAAILNPELLAALPDKVKYGKENEFAANEYERFNQKLTVAPTQGTNWSHFSPTLSRFSTGFNLVGSVLDQVLDYVPWIGNGYRYGNNHRGVDDITAPQTSAGSSSGISTNTSGSRSFLPTFSNIGVGLKANVQATLGGSQTMITGGSPRRTLDQANLQLWTGAGWRNDKASSGQSDENHTKFTSATGMDQQGQSGTSAGNPDSLKQDNISKSGDSLTTQDGNAIDQQEATNYTNLPPNLTPTADWPNALSFTNKNNAQRAQLFLRGLLGSIPVLVNRSGSDSNKFQATDQKWSYTDLHSDQTKLNLPAYGEVNGLLNPALVETYFGNTRAGGSGSNTTSSPGIGFKIPEQNNDSKATLITPGLAWTPQDVGNLVVSGTTVSFQLGGWLVTFTDFVKPRAGYLGLQLTGLDASDATQRALIWAPRPWAAFRGSWVNRLGRVESVWDLKGVWADQAQSDSQGSTTTATRNALPEHPNALAFQVSVVEASAYKPNTSSGQTQSTNSSPYLHLVKPKKVTQSDKLDDDLKNLLDPNQVRTKLRQSFGTDHSTQPQPQSLKTTTPVFGTSSGNLSSVLSGGGAGGGSSGSGQSGVDLSPVEKVSGWLVGQLPSTSDGNTSSTNNLAPNTNTGNDVVGVGRLSESNAAKMNDDVDGIVRTPLAELLDGEGQTADTGPQSVKFKSPDQIDFNRLFTHPVTDLFDPVTMLVYDQYIPLFIDIPASVNPKMVRLKVLSFDTNEQSLGLRLEFFKPDQDTQPNNNVQVNPNNGDFLPLLTASSQGPQTLFSPFNQWPD
notes: source: E. coli B834 (DE3), purified (HisTrap, Superdex 200)
B2: P40 polypeptide (from the N-end of P40/P90N to Arg445) (domain or fragment)
chain: SLANTYLLQDHNTLTPYTPFTTPLNGGLDVVRAAHLHPSYELVDWKRVGDTKLVALVRSALVRVKFQDTTSSDQSNTNQNALSFDTQESQKALNGSQSGSSDTSGSNSQDFASYVLIFKAAPRATWVFERKIKLALPYVKQESQGSGDQGSNGKGSLYKTLQDLLVEQPVTPYTPNAGLARVNGVAQDTVHFGSGQESSWNSQRSQKGLKNNPGPKAVTGFKLDKGRAYRKLNESWPVYEPLDSTKEGKGKDESSWKNSEKTTAENDAPLVGMVGSGAAGSASSLQGNGSNSSGLKSLLRSAPVSVPPSSTSNQTLSLSNPAPVGPQAVVSQPAGGATAAVSVNRTASDTATFSKYLNTAQALHQMGVIVPGLEKWGGNNGTGVVASRQDATSTNLPHAAGASQTGLGTGSPREPALTATSQR
notes: source: E. coli B834 (DE3), cleavage product in purified P40/P90N samples

Columns and labels:
Conditions in all cases: both partners purified
[1] = target: P40/P90N (short construct of P40/P90, residues Ser23-Val1003) (Mycoplasma pneumoniae, UniProt Q50341 23-1003); experiment: SEC
[2] = target: P40/P90 long construct (residues 23-1114) (Mycoplasma pneumoniae, UniProt Q50341 23-1114); experiment: SEC
[3] = target: T1, P90N polypeptide (Ala446 to the C-end …); experiment: SEC-MALS

Binder | binding result [1] | binding result [2] | binding result [3]
B1 | binds | binds | –
B2 | – | – | binds
